Results reported in article PMC3506619 (PLoS ONE, 2012).

B1: ΔS16 truncated β subunit of methionine adenosyltransferase II (domain or fragment, human)
chain: GSHSCRLVEEEVNIPNRRVLVTGATGLLGRAVHKEFQQNNWHAVGCGFRRARPKFEQVNLLDSNAVHHIIHDFQPHVIVHCAAERRPDVVENQPDAASQLNVDASGNLAKEAAAVGAFLIYISSDYVFDGTNPPYREEDIPAPLNLYGKTKLDGEKAVLENNLGAAVLRIPILYGEVEKLEESAVTVMFDKVQFSNKSANMDHWQQRFPTHVKDVATVCRQLAEKRMLDPSIKGTFHWSGNEQMTKYEMACAIADAFNLPSSHLRPITDSPVLGAQRPRNAQLDCSKLETLGIGQRTPFRIGIKESLWPFLIDKRWRQTVFH
B2: refolded methionine adenosyltransferase II catalytic α2 subunit (human MAT2A) (enzyme)
chain: not shown
notes: human MAT2A ORF from lymphocyte RNA, non-tagged; all cloned ORFs carried A233V and G193S against previously reported cDNAs; Dimer by gel filtration at low concentration, dimer and tetramer at higher concentration; Runs as a double band (α2 and α2′) on SDS-PAGE; The ITC methods say only 'α2 subunit'; also called MAT α2

Tests used:
[1] = biological target: B2; experiment: SEC; equimolar refolded α2 and β (wild type, mutant or truncated) mixed 1 h at 4°C, hetero-oligomer isolated on Biogel A 1.5 m in 50 mM Tris/HCl pH 8, 10 mM MgSO4, 50 mM KCl; peak on SDS-PAGE, densitometric scanning of Coomassie-stained bands; details: both partners purified
[2] = biological target: the molecule itself; experiment: SEC; analytical gel filtration on Superose 12 10/300 GL, refolded α2 50 µg injected, 20 mM Tris/HCl pH 8, 10 mM MgSO4, 150 mM KCl; detection by MAT activity and dot blot
[3] = biological target: the molecule itself; experiment: SEC; analytical gel filtration on Superose 12 10/300 GL, refolded α2 at higher protein concentration (200 µg injected), 20 mM Tris/HCl pH 8, 10 mM MgSO4, 150 mM KCl; detection by MAT activity and dot blot

(α2+α2′)/β subunit ratio [1] | Binder | stoichiometry N [2] | stoichiometry N [3]
2 | B1 |  | 
 | B2 | 2 | 4
